Columns and labels:
[1] = substrate: CC(C)C[C@H](NC(=O)CN)C(=O)N[C@@H](Cc1ccccc1)C(=O)N[C@@H](C)C(=O)N[C@@H](CO)C(=O)N[C@@H](CCCCN)C(=O)N[C@@H](CC(C)C)C(=O)N[C@@H](Cc1ccccc1)C(=O)O; assay: Ratio of kcat to Km for Saccharomyces cerevisiae NMT D106K mutant
[2] = substrate: CC(C)C[C@H](NC(=O)CN)C(=O)N[C@@H](Cc1ccccc1)C(=O)N[C@@H](C)C(=O)N[C@@H](CO)C(=O)N[C@@H](CCCCN)C(=O)N[C@@H](CC(C)C)C(=O)N[C@@H](Cc1ccccc1)C(=O)O; assay: Activity of Saccharomyces cerevisiae NMT D106K mutant assessed as production of coenzyme A after 1 hr
[3] = substrate: CC(C)C[C@H](NC(=O)CN)C(=O)N[C@@H](Cc1ccccc1)C(=O)N[C@@H](C)C(=O)N[C@@H](CO)C(=O)N[C@@H](CCCCN)C(=O)N[C@@H](CC(C)C)C(=O)N[C@@H](Cc1ccccc1)C(=O)O; assay: Activity of Saccharomyces cerevisiae NMT D22K mutant assessed as production of coenzyme A after 1 hr
[4] = substrate: CC(C)C[C@H](NC(=O)CN)C(=O)N[C@@H](Cc1ccccc1)C(=O)N[C@@H](C)C(=O)N[C@@H](CO)C(=O)N[C@@H](CCCCN)C(=O)N[C@@H](CC(C)C)C(=O)N[C@@H](Cc1ccccc1)C(=O)O; assay: Ratio of kcat to Km for Saccharomyces cerevisiae NMT D22K mutant
[5] = substrate: CC(C)C[C@H](NC(=O)CN)C(=O)N[C@@H](Cc1ccccc1)C(=O)N[C@@H](C)C(=O)N[C@@H](CO)C(=O)N[C@@H](CCCCN)C(=O)N[C@@H](CC(C)C)C(=O)N[C@@H](Cc1ccccc1)C(=O)O; assay: Ratio of kcat to Km for Saccharomyces cerevisiae NMT T24D mutant
[6] = substrate: CC(C)C[C@H](NC(=O)CN)C(=O)N[C@@H](Cc1ccccc1)C(=O)N[C@@H](C)C(=O)N[C@@H](CO)C(=O)N[C@@H](CCCCN)C(=O)N[C@@H](CC(C)C)C(=O)N[C@@H](Cc1ccccc1)C(=O)O; assay: Activity of Saccharomyces cerevisiae NMT T24D mutant assessed as production of coenzyme A after 1 hr
[7] = substrate: CC(C)C[C@H](NC(=O)CN)C(=O)N[C@@H](Cc1ccccc1)C(=O)N[C@@H](C)C(=O)N[C@@H](CO)C(=O)N[C@@H](CCCCN)C(=O)N[C@@H](CC(C)C)C(=O)N[C@@H](Cc1ccccc1)C(=O)O; assay: Activity of Saccharomyces cerevisiae NMT D22A mutant assessed as production of coenzyme A after 1 hr
[8] = substrate: CC(C)C[C@H](NC(=O)CN)C(=O)N[C@@H](Cc1ccccc1)C(=O)N[C@@H](C)C(=O)N[C@@H](CO)C(=O)N[C@@H](CCCCN)C(=O)N[C@@H](CC(C)C)C(=O)N[C@@H](Cc1ccccc1)C(=O)O; assay: Ratio of kcat to Km for Saccharomyces cerevisiae NMT D22A mutant
[9] = substrate: CC(C)C[C@H](NC(=O)CN)C(=O)N[C@@H](Cc1ccccc1)C(=O)N[C@@H](C)C(=O)N[C@@H](CO)C(=O)N[C@@H](CCCCN)C(=O)N[C@@H](CC(C)C)C(=O)N[C@@H](Cc1ccccc1)C(=O)O; assay: Activity of Saccharomyces cerevisiae NMT D108K mutant assessed as production of coenzyme A after 1 hr
[10] = substrate: CC(C)C[C@H](NC(=O)CN)C(=O)N[C@@H](Cc1ccccc1)C(=O)N[C@@H](C)C(=O)N[C@@H](CO)C(=O)N[C@@H](CCCCN)C(=O)N[C@@H](CC(C)C)C(=O)N[C@@H](Cc1ccccc1)C(=O)O; assay: Ratio of kcat to Km for Saccharomyces cerevisiae NMT D108K mutant
[11] = substrate: CC(C)C[C@H](NC(=O)CN)C(=O)N[C@@H](Cc1ccccc1)C(=O)N[C@@H](C)C(=O)N[C@@H](CO)C(=O)N[C@@H](CCCCN)C(=O)N[C@@H](CC(C)C)C(=O)N[C@@H](Cc1ccccc1)C(=O)O; assay: Ratio of kcat to Km for Saccharomyces cerevisiae NMT D108A mutant
[12] = substrate: CC(C)C[C@H](NC(=O)CN)C(=O)N[C@@H](Cc1ccccc1)C(=O)N[C@@H](C)C(=O)N[C@@H](CO)C(=O)N[C@@H](CCCCN)C(=O)N[C@@H](CC(C)C)C(=O)N[C@@H](Cc1ccccc1)C(=O)O; assay: Activity of Saccharomyces cerevisiae NMT D108A mutant assessed as production of coenzyme A after 1 hr

B1: Glycylpeptide N-tetradecanoyltransferase (Saccharomyces cerevisiae S288c), P14743 D106K (protein)
chain: MSEEDKAKKLENLLKLLQLNNDDTSKFTQEQKKAMKDHKFWRTQPVKDFDEKVVEEGPIDKPKTPEDISDKPLPLLSSFEWCSIDVDNKKQLEDVFVLLNENYVEKRDAGFRFNYTKEFFNWALKSPGWKKDWHIGVRVKETQKLVAFISAIPVTLGVRGKQVPSVEINFLCVHKQLRSKRLTPVLIKEITRRVNKCDIWHALYTAGIVLPAPVSTCRYTHRPLNWKKLYEVDFTGLPDGHTEEDMIAENALPAKTKTAGLRKLKKEDIDQVFELFKRYQSRFELIQIFTKEEFEHNFIGEESLPLDKQVIFSYVVEQPDGKITDFFSFYSLPFTILNNTKYKDLGIGYLYYYATDADFQFKDRFDPKATKALKTRLCELIYDACILAKNANMDVFNALTSQDNTLFLDDLKFGPGDGFLNFYLFNYRAKPITGGLNPDNSNDIKRRSNVGVVML
For B1, the kcat/Km [1] was 8.65 ×10⁴ /M/s, the Km [2] was 30.6 µM and the kcat [2] was 2.65 s⁻¹.

B2: Glycylpeptide N-tetradecanoyltransferase (Saccharomyces cerevisiae S288c), P14743 D22K (protein)
chain: MSEEDKAKKLENLLKLLQLNNKDTSKFTQEQKKAMKDHKFWRTQPVKDFDEKVVEEGPIDKPKTPEDISDKPLPLLSSFEWCSIDVDNKKQLEDVFVLLNENYVEDRDAGFRFNYTKEFFNWALKSPGWKKDWHIGVRVKETQKLVAFISAIPVTLGVRGKQVPSVEINFLCVHKQLRSKRLTPVLIKEITRRVNKCDIWHALYTAGIVLPAPVSTCRYTHRPLNWKKLYEVDFTGLPDGHTEEDMIAENALPAKTKTAGLRKLKKEDIDQVFELFKRYQSRFELIQIFTKEEFEHNFIGEESLPLDKQVIFSYVVEQPDGKITDFFSFYSLPFTILNNTKYKDLGIGYLYYYATDADFQFKDRFDPKATKALKTRLCELIYDACILAKNANMDVFNALTSQDNTLFLDDLKFGPGDGFLNFYLFNYRAKPITGGLNPDNSNDIKRRSNVGVVML
Work on B2 yielded a Km [3] of 23.8 µM, a kcat [3] of 2.5 s⁻¹ and a kcat/Km [4] of 1.05 ×10⁵ /M/s.

B3: Glycylpeptide N-tetradecanoyltransferase (Saccharomyces cerevisiae S288c), P14743 T24D (protein)
chain: MSEEDKAKKLENLLKLLQLNNDDDSKFTQEQKKAMKDHKFWRTQPVKDFDEKVVEEGPIDKPKTPEDISDKPLPLLSSFEWCSIDVDNKKQLEDVFVLLNENYVEDRDAGFRFNYTKEFFNWALKSPGWKKDWHIGVRVKETQKLVAFISAIPVTLGVRGKQVPSVEINFLCVHKQLRSKRLTPVLIKEITRRVNKCDIWHALYTAGIVLPAPVSTCRYTHRPLNWKKLYEVDFTGLPDGHTEEDMIAENALPAKTKTAGLRKLKKEDIDQVFELFKRYQSRFELIQIFTKEEFEHNFIGEESLPLDKQVIFSYVVEQPDGKITDFFSFYSLPFTILNNTKYKDLGIGYLYYYATDADFQFKDRFDPKATKALKTRLCELIYDACILAKNANMDVFNALTSQDNTLFLDDLKFGPGDGFLNFYLFNYRAKPITGGLNPDNSNDIKRRSNVGVVML
B3 was tested, and the kcat/Km [5] was 6.67 ×10⁴ /M/s, the Km [6] was 41.6 µM and the kcat [6] was 2.77 s⁻¹.

B4: Glycylpeptide N-tetradecanoyltransferase (Saccharomyces cerevisiae S288c), P14743 D22A (protein)
chain: MSEEDKAKKLENLLKLLQLNNADTSKFTQEQKKAMKDHKFWRTQPVKDFDEKVVEEGPIDKPKTPEDISDKPLPLLSSFEWCSIDVDNKKQLEDVFVLLNENYVEDRDAGFRFNYTKEFFNWALKSPGWKKDWHIGVRVKETQKLVAFISAIPVTLGVRGKQVPSVEINFLCVHKQLRSKRLTPVLIKEITRRVNKCDIWHALYTAGIVLPAPVSTCRYTHRPLNWKKLYEVDFTGLPDGHTEEDMIAENALPAKTKTAGLRKLKKEDIDQVFELFKRYQSRFELIQIFTKEEFEHNFIGEESLPLDKQVIFSYVVEQPDGKITDFFSFYSLPFTILNNTKYKDLGIGYLYYYATDADFQFKDRFDPKATKALKTRLCELIYDACILAKNANMDVFNALTSQDNTLFLDDLKFGPGDGFLNFYLFNYRAKPITGGLNPDNSNDIKRRSNVGVVML
B4 gave a Km [7] of 19 µM, a kcat [7] of 1.72 s⁻¹ and a kcat/Km [8] of 9.03 ×10⁴ /M/s.

B5: Glycylpeptide N-tetradecanoyltransferase (Saccharomyces cerevisiae S288c), P14743 D108K (protein)
chain: MSEEDKAKKLENLLKLLQLNNDDTSKFTQEQKKAMKDHKFWRTQPVKDFDEKVVEEGPIDKPKTPEDISDKPLPLLSSFEWCSIDVDNKKQLEDVFVLLNENYVEDRKAGFRFNYTKEFFNWALKSPGWKKDWHIGVRVKETQKLVAFISAIPVTLGVRGKQVPSVEINFLCVHKQLRSKRLTPVLIKEITRRVNKCDIWHALYTAGIVLPAPVSTCRYTHRPLNWKKLYEVDFTGLPDGHTEEDMIAENALPAKTKTAGLRKLKKEDIDQVFELFKRYQSRFELIQIFTKEEFEHNFIGEESLPLDKQVIFSYVVEQPDGKITDFFSFYSLPFTILNNTKYKDLGIGYLYYYATDADFQFKDRFDPKATKALKTRLCELIYDACILAKNANMDVFNALTSQDNTLFLDDLKFGPGDGFLNFYLFNYRAKPITGGLNPDNSNDIKRRSNVGVVML
In the case of B5, the Km [9] is reported as 13.9 µM, the kcat [9] is reported as 1.94 s⁻¹ and the kcat/Km [10] is reported as 1.4 ×10⁵ /M/s.

B6: Glycylpeptide N-tetradecanoyltransferase (Saccharomyces cerevisiae S288c), P14743 D108A (protein)
chain: MSEEDKAKKLENLLKLLQLNNDDTSKFTQEQKKAMKDHKFWRTQPVKDFDEKVVEEGPIDKPKTPEDISDKPLPLLSSFEWCSIDVDNKKQLEDVFVLLNENYVEDRAAGFRFNYTKEFFNWALKSPGWKKDWHIGVRVKETQKLVAFISAIPVTLGVRGKQVPSVEINFLCVHKQLRSKRLTPVLIKEITRRVNKCDIWHALYTAGIVLPAPVSTCRYTHRPLNWKKLYEVDFTGLPDGHTEEDMIAENALPAKTKTAGLRKLKKEDIDQVFELFKRYQSRFELIQIFTKEEFEHNFIGEESLPLDKQVIFSYVVEQPDGKITDFFSFYSLPFTILNNTKYKDLGIGYLYYYATDADFQFKDRFDPKATKALKTRLCELIYDACILAKNANMDVFNALTSQDNTLFLDDLKFGPGDGFLNFYLFNYRAKPITGGLNPDNSNDIKRRSNVGVVML
With B6 the kcat/Km [11] was 2.45 ×10⁵ /M/s, the Km [12] was 7.89 µM and the kcat [12] was 1.94 s⁻¹.
